pKd: −log10 of the molar value.
How the values were obtained:
[1] = target: rPfCSP_∆ABCD (Plasmodium falciparum) (UniProt Q7K740); assay: ITC
[2] = target: recombinant full-length PfCSP (rPfCSP_FL) (Plasmodium falciparum) (UniProt Q7K740); assay: ITC

L9 (antibody)
pKd [1]: 7.14
stoichiometry N (antigen binding sites per rPfCSP) [1]: 12.7
KD1 (binding event 1) [2]: 22 nM
KD2 (binding event 2) [2]: 47 nM
N of binding event 1 (binding sites) [2]: 2
N of binding event 2 (binding sites) [2]: 9
stoichiometry N (antigen binding sites per rPfCSP) [2]: 11.2

From publication PMC7572793
